Measurements reported in US8399201B2, “Polypeptide complex of TRPM8 and calmodulin and its uses thereof” (Janssen Pharmaceutica N.V., priority 2005, dated 2013).
Values belong to the molecule of their own block, whether it stands above or below them.

Biological target: T1, calmodulin (Rattus norvegicus, UniProt P0DP29)
T1 construct: made in house; host or cells: Escherichia coli BL21 (pGEX-4T-1 based plasmid)
Test: Pull-down of 35S-methionine-labelled TRPM8 fragments on GST-CaM agarose-GSH beads, SDS/PAGE and autoradiography
Assay type: binding
Parameters: key to Binding (binding activity to calmodulin): (+) binding was detected; (−) no binding was detected
Details: for binding to CaM (result in words): TRPM8 fragments, FIG. 1 and FIG. 2; for Binding (binding activity to calmodulin): rat TRPM8 constructs, binding buffer with 2 mM CaCl2, 30 min room temperature
Description: ^35S-methionine labelled TRPM8 fragments were synthesized using TnT® T7 Quick Coupled Transcription/Translation System (Promega) following the vendor recommended protocol. Briefly, 10 μl of 0.1 μg/μl pAGA3 based TRPM8 construct (listed in Table 1) was added to 90 μl of TNT Quick Master Mix with 2 μl of [^35S]-methionine (1000 Ci/mmmol at 10 mCi/ml). The reaction mixture was incubated at 30° C. for 90 min. Aliquots of the incubation mixtures were used directly either for analysis by SDS/PAGE to confirm synthesis of proteins of the desired size or for the ability to bind to GST or GST-CaM.
The GST-CaM fusion plasmid was based on pGEX-4T-1 (Amersham Pharmacia). The CaM was fused to the C-terminus of GST. After transformation into Escherichia coli BL21, a single colony was picked and grown in brow medium to OD of 1.0 at 600 nm. The synthesis of the fusion protein was induced with 0.2 mM isopropyl β-D-thiogalactoside (IPTG). After growing 2-3 hours in the presence of IPTG at 27° C., the cells were collected by centrifugation, resuspended in NETN lysis buffer (0.5% Nonidet P-40/1 mM EDTA/20 mM Tris-HCl, pH8.0/100 mM NaCl; 1 ml of buffer per 20 ml of culture), and lysed by sonication. The cell lysate was separated from the cell debris by centrifugation at 10,000 g for 10 min at 4° C. GST-CaM in the cell lysate was adsorbed for 30 min at room temperature to agarose-glutathione (GSH) beads (Amersham Pharmacia) (1 vol. of lysates/1 vol of 50% (vol/vol) slurry of Agarose-GSH beads in NETN). The beads were washed with binding buffer (20 mM Tris-HCl, pH7.5/100 mM NaCl/2 mM CaCl2/0.5% Tween20).
Agarose-GSH beads (50% (vol./vol.)) bound with about 1 μg of GST or GST-CaM were incubated with 10 μl of ^35S-labelled TRPM8 fragment for 30 min at room temperature in a final volume of 200 μl of binding buffer. At the end of the incubation, the beads were washed three times with 1.0 ml of binding buffer and resuspended in 20 μl of 2× laemmli's sample loading buffer. Protein(s) bound to the beads, including the GST-CaM fusion protein, and possibly the ^35S-labelled TRPM8 fragment that interact with the GST-CaM fusion protein, were separated by SDS/PAGE followed by autoradiography.

B2: TRPM8-10/pAGA3: Rat TRPM8 fragment, residues D198-S352, 154 aa (protein)
chain: DNTISRNSEENIVAIGIAAWGMVSNRDTLIRNCDDEGHFSAQYIMDDFMRDPLYILDNNHTHLLLVDNGCHGHPTVEAKLRNQLEKYISERTSQDSNYGGKIPIVCFAQGGGRETLKAINTSVKSKIPCVVVEGSGQIADVIASLVEVEDVLTSS
Binding (binding activity to calmodulin): −

B3: TRPM8-9/pAGA3: Rat TRPM8 fragment, residues A172-S352, 180 aa (protein)
chain: AQSKGAWILTGGTHYGLMKYIGEVVRDNTISRNSEENIVAIGIAAWGMVSNRDTLIRNCDDEGHFSAQYIMDDFMRDPLYILDNNHTHLLLVDNGCHGHPTVEAKLRNQLEKYISERTSQDSNYGGKIPIVCFAQGGGRETLKAINTSVKSKIPCVVVEGSGQIADVIASLVEVEDVLTSS
Binding (binding activity to calmodulin): −

B4: TRPM8-2/pAGA3: Rat TRPM8 fragment, residues M353-T690, 337 aa (protein)
chain: MVKEKLVRFLPRTVSRLPEEEIESWIKWLKEILESPHLLTVIKMEEAGDEVVSSAISYALYKAFSTNEQDKDNWNGQLKLLLEWNQLDLASDEIFTNDRRWESADLQEVMFTALIKDRPKFVRLFLENGLNLQKFLTNEVLTELFSTHFSTLVYRNLQIAKNSYNDALLTFVWKLVANFRRSFWKEDRSSREDLDVELHDASLTTRHPLQALFIWAILQNKKELSKVIWEQTKGCTLAALGASKLLKTLAKVKNDINAAGESEELANEYETRAVELFTECYSSDEDLAEQLLVYSCEAWGGSNCLELAVEATDQHFIAQPGVQNFLSKQWYGEISRDT
binding to CaM (result in words): not
Binding (binding activity to calmodulin): −

B7: TRPM8-1/pAGA3: Rat TRPM8 fragment, residues M1-K432, 432 aa, in vitro translated from pAGA3 (protein)
chain: MSFEGARLSMRSRRNGTLGSTRTLYSSVSRSTDVSYSESDLVNFIQANFKKRECVFFTRDSKAMESICKCGYAQSQHIEGTQINQNEKWNYKKHTKEFPTDAFGDIQFETLGKKGKYLRLSCDTDSETLYELLTQHWHLKTPNLVISVTGGAKNFALKPRMRKIFSRLIYIAQSKGAWILTGGTHYGLMKYIGEVVRDNTISRNSEENIVAIGIAAWGMVSNRDTLIRNCDDEGHFSAQYIMDDFMRDPLYILDNNHTHLLLVDNGCHGHPTVEAKLRNQLEKYISERTSQDSNYGGKIPIVCFAQGGGRETLKAINTSVKSKIPCVVVEGSGQIADVIASLVEVEDVLTSSMVKEKLVRFLPRTVSRLPEEEIESWIKWLKEILESPHLLTVIKMEEAGDEVVSSAISYALYKAFSTNEQDKDNWNGQLKL
binding to CaM (result in words): found to bind to CaM
Binding (binding activity to calmodulin): +

B8: TRPM8-8/pAGA3: Rat TRPM8 fragment, residues M219-S352, 133 aa (protein)
chain: MVSNRDTLIRNCDDEGHFSAQYIMDDFMRDPLYILDNNHTHLLLVDNGCHGHPTVEAKLRNQLEKYISERTSQDSNYGGKIPIVCFAQGGGRETLKAINTSVKSKIPCVVVEGSGQIADVIASLVEVEDVLTSS
Binding (binding activity to calmodulin): −

Continued, values first:

binding to CaM (result in words): found to bind CaM
Binding (binding activity to calmodulin): +
B1: TRPM8-7/pAGA3: Rat TRPM8 fragment, residues V145-S352, 207 aa (protein)
chain: VISVTGGAKNFALKPRMRKIFSRLIYIAQSKGAWILTGGTHYGLMKYIGEVVRDNTISRNSEENIVAIGIAAWGMVSNRDTLIRNCDDEGHFSAQYIMDDFMRDPLYILDNNHTHLLLVDNGCHGHPTVEAKLRNQLEKYISERTSQDSNYGGKIPIVCFAQGGGRETLKAINTSVKSKIPCVVVEGSGQIADVIASLVEVEDVLTSS

binding to CaM (result in words): not
Binding (binding activity to calmodulin): −
B5: TRPM8-4/pAGA3: Rat TRPM8 fragment, residues I609-K1104 (end), 495 aa (protein)
chain: NAAGESEELANEYETRAVELFTECYSSDEDLAEQLLVYSCEAWGGSNCLELAVEATDQHFIAQPGVQNFLSKQWYGEISRDTKNWKIILCLFIIPLVGCGLVSFRKKPIDKHKKLLWYYVAFFTSPFVVFSWNVVFYIAFLLLFAYVLLMDFHSVPHTPELILYALVFVLFCDEVRQWYMNGVNYFTDLWNVMDTLGLFYFIAGIVFRLHSSNKSSLYSGRVIFCLDYIIFTLRLIHIFTVSRNLGPKIIMLQRMLIDVFFFLFLFAVWMVAFGVARQGILRQNEQRWRWIFRSVIYEPYLAMFGQVPSDVDSTTYDFSHCTFSGNESKPLCVELDEYNLPRFPEWITIPLVCIYMLSTNILLVNLLVAMFGYTVGIVQENNDQVWKFQRYFLVQEYCNRLNIPFPFVVFAYFYMVVKKCFKCCCKEKNTESSACCFRNEDNETLAWEGVMKENYLVKINTKANDNAEEMRHRFRQLDTKLNDLKGLLKEIANKIK

binding to CaM (result in words): found to bind CaM
Binding (binding activity to calmodulin): +
B6: TRPM8-6/pAGA3: Rat TRPM8 fragment, residues M63-S352, 289 aa (protein)
chain: AMESICKCGYAQSQHIEGTQINQNEKWNYKKHTKEFPTDAFGDIQFETLGKKGKYLRLSCDTDSETLYELLTQHWHLKTPNLVISVTGGAKNFALKPRMRKIFSRLIYIAQSKGAWILTGGTHYGLMKYIGEVVRDNTISRNSEENIVAIGIAAWGMVSNRDTLIRNCDDEGHFSAQYIMDDFMRDPLYILDNNHTHLLLVDNGCHGHPTVEAKLRNQLEKYISERTSQDSNYGGKIPIVCFAQGGGRETLKAINTSVKSKIPCVVVEGSGQIADVIASLVEVEDVLTSS
